Test: label from the status in PepcDB records
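Also: failed if final PepcDB status was selected cloned or expressed and not failed if soluble or beyond.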

Sequence | protein production
DRVTLEVGKVIQQGRQSKGLTQKDLATKINEKPQVIADYESGRAIPNNQVLGKIERAIGLKLRGKDIGKPIEKGPRAK | not failed
DSIVEGRTLNVAVSPASPPMLFKSADGKLQGIDLELFSSYCQSRHCKLNITEYAWDGMLGAVASGQADVAFSGISITDKRKKVIDFSEPYYINSFYLVSMANHKITLNNLNELNKYSIGYPRGMAYSDLIKNDLEPKGYYSLSKVKLYPTYNETMADLKNGNLDLAFIEEPVYFTFKNKKKMPIESRYVFKNVDQLGIAFKKGSPVRDDFNLWLKEQGPQKISGIVDSWMK | not failed
DSRQRFKRQMVEQAAPWLLELSARTGLVTDLSSFDGESLEVLESAVPEVLRKRYPSNSRIVGQHASLFHSAMGKACLGALASAEVERLAEQEQVPAEARQQCLESQHLGFGQRTEGHWEYPVRLPFLIRAVALPLQAEGRVIGSIALHWPRDLACVEQVRNRHLWLLAETVERVQKDI | failed
DTMCLAIPGQVIEIREENGLKMGTVDISGALTKACLEYVPEIAIGQYTIVHAGFALKIIDEKEAAESLKLWDELIKSG | not failed
DYSQKLQNLISEQLVGCGFNEILNNSLTAASYYEGSETYKNENLVYLMNPLSNDLNVMRQTLLFGGLESIQHNANRKNADLKFFEFGNCYFYNAEKKNPEKVLAAYAEEYHLGLWVTGKRVSNSWAHPDENSSVYELKAYVLNIFTRLGLNFGNVVFGNLTNDIYSTAISVHTRGGKLLATFGIISKKIQKAFDIDNEVYYAEINWKELM | not failed
EAGTGRPVLILHGGGGPATVAPLAGHLARTAHTLVPTHPGWNGTPRPDRFAGVDDIALAYLRHLQDRGLRDVLVVGSSLGGWIGAELAARDDLGIITGLVLIDAVGIQVDGEPVRDFFALDARGVAEYSYHDPDRFYVDPADIPAGQLAARQANMATMRALAGDPYMHDPTLRGRLARVPVPTLVLWGESDRIVTPAYGRAYTDAFPDARFEVIPKAGHLPQLEQPEATFAAIDAYLAR | failed
EARGFTAEDFALSHPGGALGRKLLLRVNDIMHTGDEIPHVGLQATLRDALLEITRKNLGMTAICDDDMNIIGIFTDGDLRRVFDTGVDMRDASIADVMTRGGIRIRPGTLAVDALNLMQSRHITCVLVADGDHLLGVVHMHDLLRA | not failed
ECPAVVAVVARGSEQNLQIRPARYSEESPWTSNGFEEKNFRSFFGRMEKHYRESTGESLMKDVYVMGLNNIEYPASLPLSSEGSSAIELGTSISSGRDNVISAIDRFESATGCTPKYLLAGYSQGVLIVDGYEEELIARDQYLGTLHIANPAQQVDDPTLVGHEVTTGGLASSVEPVEDNPFKVSYCLPGDIVCDRSFEQFSAAGSSIAAAQLSTGNIRPGRVHVQYFVTTQPWDEQIFDEVASWIEAA | failed
EDDYYYPSVKLEFVTVKAGTDGSIQTLIPDNGEALTVSKDRTGSAISPNTSRRVMSNYETLSNGHTATAVIYSLQSLVTPTPKPADDPTYRDGLKHDPVDVVSIWLGRGYLNMILNLKVNGGKQHVFGIVEDLSEFETNGTVNMLLYHDANGDEEYYNRRAYLSVPLDKYADAENPGQKITIKFKYYTYDKDGTAIESGKYCNPGFEYVPDKN | not failed
EDRNFVYLKRQVPMDVADKIKQMALPGIHQQPESRRYYPEGEVTAHIVGFNNVEDQGQEGVELTFNQQLSGQPGSRRVIKDRLGRVIEDVQAVTLPVDGRDLRLSID | failed
EELQALVDNIPAAIYHLDVSGQATIRFRPPAFLKTLVSEHAGTTRLNTLSMIHHDDRHMLSNAYSKLREAKHSLTLVYRIVTPEGKLHWIEDHMRSSFSDDGLFSGIDGILCEVT | not failed
EGLDYLTAPNPPSIREELCTASHDTITVHWISDDEFSISSYELQYTIFTGQANFISLYNSVDSWMIVPNIKQNHYTVHGLQSGTRYIFIVKAINQAGSRNSEPTRLKTNSQPFK | not failed
EHIVPSNQQQIVRVLRTPGNNLHEVETAQGQRFLVSMPSKYRKNIWIKRGDFLIVDPIEEGEKVKAEISFVLCKDHVRSLQKEGFWPEAFSEVAEKHN | not failed
EIHHRKPHGPEAALENVDAKIAKLMGEGYAFEEVKRALEIAQNNVEVARSILREFAFPPPVSPRLNL | failed
EKAVLIGEKEADITFVTWGSQKGPILDVIEDLKEEGISANLLYLKMFSPFPTEFVKNVLSSANLVIDVESNYTAQAAQMIKLYTGIDIKNKILKYNGRHMTEDEILKSAKEILNK | not failed
EKKEGHFSALPSLPVGSHAKVSSPQPRGPRYAEGTFISDYSIAMDKIHQQDFVNWLLAQKGKKNDWKHNITQREARALELASQANRKEEEAVEPQSSPAKNPSDEDLLRDLLIQELLACLLDQTNLCRLRSR | failed
ELCNALADKISLKDRFGFSLYIALFDKVSSLGSGSDHVMDAISQCEQYAKEQGAQERNAPWRLFFRKEVFTPWHSPSEDNVATNLIYQQVVRGVKFGEYRCEKEDDLAELASQQYFVDYGSEMILERLLNLVPTYIPDREITPLKTLEKWAQLAIAAHKKGIYAQRRTDAQKVKEDVVSYARFKWPLLFSRFYEAYKFSGPSLPKNDVIVAVNWTGVYFVDEQEQVLLELSFPEIMAVSSSRECRVWLSLGCSDLGCAAPHSGWAGLTPAGPCSPCWSCRGAKTTAPSFTLATIKGDEYTFTSSNAEDIRDLVVTFLEGLRKRSKYVVALQDNPNPAGEESGFLSFAKGDLIILDHDTGEQVMNSGWANGINERTKQRGDFPTDCVYVMPTVTMPPREIVALVTMTPDQRQDVVRLLQLRTAEPEVRAKPYTLEEFSYDYFRPPPKHTLSRVMVSKARGKDRLWSHTREPLKQA | failed
ELEHQISGTSKEALLDDIRSLIDSASYTYIRQREMKGLGHAILTGRELVGDEPFAVVLADDLCVNEEQGVLAQMVELYKQFRCSIVAVQEVPETETHKYGVIAGEMIKDDIFRIDNMVEKPEPGTAPSNLAIIGRYILTPDIFELIENTEPGKGGEIQITDALMQQAQSGCVIAYKFKGQRFDCGSVEGYIEATNYCYENLYKKASSAELAKTPTVKVSEPA | failed

Sequence | protein production
ELLKSGKAKDRFEGEENAPVTIVEYASLTCVHCAHFYNDVLPQIRKKYIKTGKVKLIFRDFAFDSRATAGFMLARCAPEDRYFPLIEVLFQKQSEWVWARDAVTPLKKIGLMAGFTDESFNACLKNQSILDEVNASFERGKELGVNATPTFFINGNKYEGAMSVEAFFSVIDSFLKN | not failed
ELQAGFDKQEYMETLKINYKVHIALDKWAANTSVADPQDFDFVYRSPVVAFDNIWDLWKHKNKSVALISVQGSIQTEASFLANLYAAMIPAKGELQLDKDFKFTYQLADNPHAAVHVGWFVAMAYLSKTVVSKIDSCYNAGIKDFILTGHSQGGGITFLLNSYLENLKMQGRLPADIRFKTYCSAGPKPGNLFYAYEYEHMTAGGWAYNVVNTADWVPDVPFSVQTVTDFTAVNPFHGAKKAIRKQRFPANLALKHMYNKMSKPSERAQKNYQKYLGRMVSNAVKKQIPNFNAPEYYNSNYYVRTGNTIVLFPDEAYYKIYSNDPEDPNIWRHHLP | failed
ELQRRKLLQENILNSIPLPIHIKDVEDDFRYVFCNEESMRMFGTHEGETVCSVLDSEQAERMQKTDLEVFTTGKPYFGVERIILKDGRSYDTIVRKNIIYDGTKRLLLNIRWD | failed
ELQVIQPEKSVSVAAGESATLRCAMTSLIPVGPIMWFRGAGAGRELIYNQKEGHFPRVTTVSELTKRNNLDFSISISNITPADAGTYYCVKFRKGSPDDVEFKSGAGTELSVRAKPSAPVVSG | not failed
ELSERQRAEQKLLEVNQLQKGIFDVANYMIISTDRRGIISTFNRTAEEILGYTAAELIGQQTPLIFHDQEEMASEAVQLSQQLQQTIRPNSIDMFAIPAIQWGVYEREWTYITKTGDRLPVYVSITALRDDQGKVDGLVGV | failed
ELTAQHVMTPRVRVSALQSSATAEDVVNLTRATGLSRFPVYRDRIDEIVGMVHLKDALAIPSRDRLRTPVGRIAQPPLLVPETLPVQPLLARLRSEQPIAVVVDEYGGTAGVVTLEDIVEELVGEVRDEHDGQDLPELAVAPPEDGRPAWDADGSCRVDILQRIGLDV | not failed
ELVVKRGEIFGVVGPTGSGKSNLISDIEQLAQGDTPSNRKILVNGNVPDTEMRRDPRKRRIAQLSQNMNFLADMTVEEFLIMHAKSRGMNSEGIVDKVIKLANNLTGEPIEKDYNLTILSGGQSRSLMVADVAVISDSPIVLIDEIENAGIKKHEALELLAGCGKIVMVITHDPVLALMTTRRVVMRNGGMNEIIETTE | failed
ENEIERPEDMRVRTLANKSKMKVSIVQQIDRKVALDDIAVSHGLDFPELLSEVETIVYSGTRINIDYFINEVMDEDHLEDIFEYFKESTTDSLEEAMQELGKDYSEEEIRLVRIKFLSEMAN | not failed
EPAEIKIIREAYKKAFLFVNKGLNTDELGQKEEAKNYYKQGIGHLLRGISISSKESEHTGPGWESARQMQQKMKETLQNVRTRLEILEKGLATSLQNDLQEVP | not failed
EPPKLVNDKPHKFKDHFFKKPKFCDVCARMIVLNNKFGLRCKNCKTNIHEHCQSYVEMQRC | not failed
EQMTRDEIEYMLSKSEATLDAEEIEMLQGVFSLDEMMAREVMVPRTDAFMIDINDDPLENIQEILKQSFSRIPVYDVDKDKIIGLIHTKRLLESGFRQGFDQINMRKMLQEPLFVPETIFVDDLLRQLRNTQNQMAILLDEYGGVAGLVTLEDLLEEIVGEID | failed
EQVFQGKLTTVGNPKGNVTLVEFFDYQCIHCKKMASTIENLVKKDSGLRVIYKEFPIFGKTSDLASRVALAAGMQGKYQAMHNALITIDKRLDEKTVMDAAKSIGLDMQKLKKDMDSQEVTDILDANRQLAEKLHLMGTPAFIIGSTPDGQYKKGSEISFIPGATSEQSLRELIKKAAGN | failed
ERLRGVSVEAPTRTGERWNALMDQIVEGVLAWHRIDSHGCVGNVDSTQENDWFSWYQQRVEVLWATLSNMNSPLMTLEDRAVLYRARAALNSLFAGFDDSSVLVHGNLTLRSMLKDPRSDQLLAMLNPGPMLWAPREYDLFRLSEEGMPSQLFYRYLSKAPVSESFVARRWLYTLWELVSRFIHTGNLDRTLFDNAAQQLLPWLE | failed
ESKSPIIQNVLSYITEHFSEGMSLKTLGNDFHINAVYLGQLFQKEMGEHFTDYLNRYRVNYAKEELLQTKDNLTIIAGKSGYTDMAYFYRQFKKHTGETPNRYRKIHQ | not failed
ESPLYCVMAKADGPVQGLADLKGRKVGFSVAGIEEALLHTMLRTNGVEPAEVEFVNVNFALTPALASGQADAVAGAFRNFELHQIAAAGSEGRCFLPEENGVPSYEELIYVANPDRMDREKVVAFLKVTERAAGFIADHPEEAWEIFRG | failed
ESRLDRILESGVLRVATTGDYKPFSYRTEEGGYAGFDVDMAQRLAESLGAKLVVVPTSWPNLMRDFADDRFDIAMSGISINLERQRQAYFSIPYLRDGKTPITLCSEEARFQTLEQIDQPGVTAIVNPGGTNEKFARANLKKARILVHPDNVTIFQQIVDGKADLMMTDAIEARLQSRLHPELCAVHPQQPFDFAEKAYLLPRDEAFKRYVDQWLHIAEQSGLLRQ | failed
ETNEITIGITVTTTGPAAALGIPERNALEFVAKEIGGHPLKVIVLDDGGDPTAATTNARRFVTESKADVIMGSSVTPPTVAVSNVANEAQVPHIALAPLPITPERAKWSVAMPQPIPIMGKVLYEHMKKNNIKTVGYIGYSDSYGDLWFNDLKKQGEAMGLKIVAEERFARPDTSVAGQVLKLVAANPDAILVGASGTAAALPQTSLRERGYKGLIYQTHGAASMDFIRIAGKSAEGVLMASGPVMDPEGQDDSALTKKPGLELNTAYEAKYGPNSRSQFAAHSFDAFKVLERVVPVALKTAKPGTQEFREAIRKALVSEKDIAASQGVYSFTETDRYGLDDRSRILLTVKDGKYVMVK | not failed

— a protein production outcome set (Wang et al. 2014)
